Experimental data taken from US20110182903A1, “NOVEL SOLUBLE CD83 POLYPEPTIDES, FORMULATIONS AND METHODS OF USE” (priority 2008, published 2011).
Like-named read-outs stand apart in the source and are kept apart here.

How the values were obtained:
[1] = tested on: heterotopic cardiac allograft; experiment: C57BL/6-to-BALB/c mouse heart transplant model (murine heterotopic cardiac allograft); assay type: in vivo; settings: for extension of allograft survival compared to untreated controls / mean survival time of graft: monotherapy; for mean survival time of graft: 100 ug per mouse per day for 8 days, untreated mean 8 days
Protocol: Animal model: C57BL/6-to-BALB/c Mouse Heart Transplant Model
Male adult C57BL/6 (H-2b) were used as donors and BALB/c (H-2d) mice were used as recipients (Jackson Laboratories, Bar Harbor, Mass.). Intra-abdominal heterotopic cardiac transplantation was performed as previously described (Corry et al. (1973) Transplantation 16(4):343-350 and Wang et al. (2007) J Immunol 179(7):4451-4463). In this study, transplant surgery involved transfer of fully MHC-mismatched hearts from C57BL/6 donors to BALB/c recipients, such that the autologous heart as well as the allogenic heart was present in the recipient.
Cardiac transplant recipients were treated as follows: Group I (five recipients) received no treatment. Group 2 (3 recipients) received hCD83ext-m3 monotherapy by i.v. at 100 μg/mouse/day, from −1 to +7 POD. […] Cardiac transplant survival was measured in the number of postoperative days (POD) that the allogenic heart continued to beat.
Cardiac transplant recipients were treated as follows: Group 4 (4 recipients) received hCD83ext-wt (SEQ ID NO:5) monotherapy by i.v. at 100 μg/mouse/day, from the day prior to transplantation until graft rejection.

[2] = Storage stability of purified protein, reduced and non-reduced SDS-PAGE; assay type: physicochemical
Protocol: The purified wild type hCD83ext, when prepared as described in Example 1 and formulated either in the presence or absence of 50% glycerol, degraded when stored at 4° C., perhaps due to an intrinsic instability of this biomolecule. […] Generally, the dimer composition increased monotonically with the sample age, indicating the progressive conversion of monomer to dimer under this storage condition. Note that there were at least two different monomer forms (lane 6, FIG. 6) and three different dimer forms (lanes 3 and 7, FIG. 6) derived from various sample preps.

[3] = tested on: TNFα production by LPS/IFN-γ stimulated peripheral blood mononuclear cells (PBMCs)
Protocol: The ability of the wild type and mutant hCD38ext to inhibit TNFα production by LPS/IFN-γ stimulated peripheral blood mononuclear cells (PBMCs) was evaluated in an in vitro assay using PBMCs from cynomologus monkeys. Specifically, cynomologus PBMCs were isolated and pretreated 12 hours with different concentrations (0.5, 5, 25 and 100 μg/ml) of hCD83ext wild type (formulated at pH 4.5 or 5.5), hCD83ext-m3 or hCD83ext-m5 (501-1). hCD83ext-m3 and hCD83ext-m5 were formulated at pH 5.5 or 7.6, respectively. The cells were then activated for 6 hours with LPS (1 μg/ml) plus IFN-γ (100 U/ml) in the presence of Brefeldin A (4 μg/ml) and then intracellularly stained for TNFα using a commercially available Fix/Perm kit. Flow cytometry acquisition and analysis of the amount of TNFα production was evaluated using either myeloid dendritic cells or monocytes. The results are expressed as % of mDC or monocytes producing TNFα and in Mean Fluorescence Units (MFU), which represents the levels of TNFα on a per cell basis.
hCD83ext wild type protein originally formulated at pH 7.6 (data shown FIGS. 26 and 27) was buffer exchanged into a buffer with a pH of 4.5 or 5.5 and re-tested as described above for the ability to inhibit TNFα production by LPS/IFN-γ stimulated cynomologus PBMCs in vitro.

[4] = Dimerization by size-exclusion chromatography and non-reduced SDS-PAGE with NEM pretreatment; assay type: physicochemical; settings: SEC and non-reduced SDS-PAGE with NEM; FIGS. 20, 21
Text: Using exactly the same fermentation and downstream processing protocols as those for wild-type hCD83ext and CD83m-5, CD83m-3 was produced and purified. […] Purified CD83m-3 was subjected to structural characterization using SDS-PAGE (FIG. 15), CD (FIGS. 16 and 17), and spectrofluometry (FIG. 18) with results similar to wild-type hCD83ext and CD83m-5. Note that a clear and reproducible doublet was observed on non-reduced SDS-PAGE (FIG. 15). Also, note that none of these two bands corresponding to the CD83m-3 doublet appeared to have an identical mobility to the monomer species of CD83m-5, but the upper CD83m-3 band appeared to have an identical mobility to the monomer species of the wild-type hCD83ext (FIG. 19). To avoid potential disulfide bond scrambling during the sample preparation for non-reduced SDS-PAGE, the protocol was modified by pretreatment of the sample with N-Ethylmaleimide (NEM). NEM alkylates free thiol groups on cysteine residues that have not formed disulfide bonds, and thereby prevents subsequent disulfide bonding by that cysteine residue. It appears that the modified protocol using NEM provides a more reliable and consistent method for quantification of CD83 dimers by preventing any potential disulfide bond scrambling and the CD83 monomer is observed as a single band, rather than as a doublet (FIG. 20). […]

[5] = tested on: TNFα production by LPS/IFN-γ stimulated human PBMCs; experiment: Inhibition of TNFα production by LPS/IFN-γ stimulated human PBMCs; assay type: cell-based; settings: FIG. 30; four m3 preparations (pH 4.5, 5.5, 7.6) vs wild type ARG-021 in PBS pH 7.6
Text: The improved stability/activity of hCD83ext-m3 as compared to hCD83ext wild type was confirmed in a similar assay using human PBMCs.

[6] = tested on: rat renal allografts; experiment: Rat renal transplant model of chronic rejection (F344 to Lewis); assay type: in vivo; settings: POD 140; with CsA, compared to CsA alone; FIG. 37
Protocol: F344 rats served as renal donors to Lewis rats. […] Transplant recipients were sacrificed on POD 140 and transplanted kidneys were assessed for indications of chronic rejection by histology and immunohistochemistry. Renal histology was scored by an independent pathologist assessing tubular atrophy, glomerular atrophy, interstitial fibrosis, intimal thickness, cell infiltrates and cortical scarring on a scale of 0-4, wherein 0=normal, 1=minimal change, 2=mild change, 3=moderate change and 4=marked change.

[7] = tested on: kidney allografts from C57BL/6 mouse donors; experiment: Mouse orthotopic kidney transplant model; assay type: in vivo; settings: monotherapy 100 μg/mouse/day i.v., day -1, day 0 and seven POD; untreated MST 31±4.9 days
Protocol: The mouse orthotopic kidney transplant model (see Zhang et al. (2005) Microsurgery 16(2):103-109) was used to assess the ability of hCD83ext-m3 to induce allograft tolerance. BALB/c mice received kidney allografts from C57BL/6 mouse donors. Recipient mice were either untreated (two mice) or received hCD83ext-m3 (3 mice; 100 μg/mouse/day, i.v.) one day prior to transplantation (day −1), the day of transplantation (day 0) and for seven days post operative days (POD). The two untreated mice survived for 28 and 35 days, giving a mean survival time (MST) of 31±4.9 days. The three mice treated with hCD83ext-m3 each survived for more than 100 POD. Accordingly, monotherapy with hCD83ext-m3 leads to long-term allograft acceptance in the mouse orthotopic kidney transplant model.

[8] = biological target: the molecule itself; experiment: non-reducing SDS-PAGE; self-association through disulfide bonds
[9] = biological target: the molecule itself; experiment: size-exclusion chromatography and non-reduced SDS-PAGE with NEM; self-association
[10] = FIG. 26, 0.5, 5, 25 and 100 μg/ml, wild type at pH 4.5 or 5.5, m3 at pH 5.5, m5 at pH 7.6

B1: hCD83ext-wt: recombinant human sCD83 (CD83 extracellular domain) purified from E. coli, wild type form, SEQ ID NO:5 (protein)
chain: GSPGTPEVKVACSEDVDLPCTAPWDPQVPYTVSWVKLLEGGEERMETPQEDHLRGQHYHQKGQNGSFDAPNERPYSLKIRNTTSCNSGTYRCTLQDPDGQRNLSGKVILRVTGCPAQRKEETFKKYRAEI
modifications: Synthetic extracellular domain of human CD83 with the addition of Gly-Ser-Pro-Gly at the N-terminus and Ile at the C-terminus
MST ± SD ([1]; Table 8, hCD83ext-wt 100 μg/mouse/day i.v., CsA 15 mg/kg/day s.c.): 15.8 ± 1.0 days | mean survival ([1]; in combination with cyclosporine, glycerol omitted): approximately 14 days | long-term graft survival ([1]; in combination with cyclosporine, stored in 50% glycerol, final glycerol concentration 8%): > 100 days | extension of allograft survival compared to untreated controls [1]: approximately 2 fold | mean survival time of graft [1]: approximately 14 days | degradation on storage ([2]; stored at 4° C., with or without 50% glycerol): degraded | degradation on storage ([2]; stored at -20° C.): completely prevented degradation | dimerization on long-term storage ([2]; stored at -20° C., frozen): dimerization could still occur

B2: hCD83ext-m5: soluble CD83 mutant, fifth cysteine of SEQ ID NO:5 mutated to serine, SEQ ID NO:6 (WO2004/046182) (protein)
chain: GSPGTPEVKVACSEDVDLPCTAPWDPQVPYTVSWVKLLEGGEERMETPQEDHLRGQHYHQKGQNGSFDAPNERPYSLKIRNTTSCNSGTYRCTLQDPDGQRNLSGKVILRVTGSPAQRKEETFKKYRAEI
modifications: Synthetic extracellular domain of human CD83 with the addition of Gly-Ser-Pro-Gly and the N-terminus and Ile at the C-terminus, with Cys to Ser (C2S) mutation at position 114
mean survival time of graft [1]: approximately 14 days | ability to inhibit TNFα production (relative activity) [3, 10]: more active than the wild type hCD93ext | ability to inhibit TNFα production (relative activity) ([3]; FIG. 27, proteins formulated at pH 7.6): outperformed two preparations of hCD83ext wild type | dimerization [4]: significant

B3: hCD83ext-m3: m3 mutant form of human sCD83; SEQ ID NO:7 with Cys at 12, 20, 92, 114 and Ser at 85 (protein)
chain: GSPGTPEVKVAXSEDVDLPXTAPWDPQVPYTVSWVKLLEGGEERMETPQEDHLRGQHYHQKGQNGSFDAPNERPYSLKIRNTTSXNSGTYRXTLQDPDGQRNLSGKVILRVTGXPAQRKEETFKKYRAEI
modifications: Synthetic extracellular domain of human CD83 with the addition of Gly-Ser-Pro-Gly and the N-terminus and Ile at the C-terminus
synergy with CsA and operational tolerance ([1]; 3 doses on days -1 to +1 plus CsA, CsA withdrawn at day 50, data not shown): full synergy with CsA, but incomplete operational tolerance | MST ± SD ([1]; Table 7, hCD83ext-m3 100 μg/mouse/day i.v. -1 to +7 POD, CsA 15 mg/kg/day s.c. daily): 13.7 ± 0.6 days | allograft tolerance after CsA withdrawal ([1]; combination therapy with CsA, CsA withdrawn at day 28, data not shown): does not lead to permanent allograft tolerance | extension of allograft survival compared to untreated controls [1]: approximately 2 fold | mean survival time of graft [1]: approximately 14 days | allograft tolerance after cessation of daily CsA therapy ([1]; plus CsA until POD 50, hCD83ext-m3 100 μg i.v. days -1 to +7, data not shown): complete allograft tolerance | ability to inhibit TNFα production (relative activity) [3, 10]: more active than the m5 mutant | ability to inhibit TNFα production (relative activity) [5]: outperformed hCD83ext wild type | immunohistochemistry grading in renal allografts (IgG, IgM deposits; CD2, CD4, ED-1 infiltration) [6]: significantly (p<0.05) improves immunohistochemistry grading | dimerization [4]: absent or minimal | survival of kidney allograft recipients [7]: more than 100 POD

B4: wild type hCD83ext (human CD83 extracellular domain with N-terminal Gly-Ser-Pro-Gly and C-terminal Ile, purified from E. coli) (receptor)
chain: GSPGTPEVKVACSEDVDLPCTAPWDPQVPYTVSWVKLLEGGEERMETPQEDHLRGQHYHQKGQNGSFDAPNERPYSLKIRNTTSCNSGTYRCTLQDPDGQRNLSGKVILRVTGCPAQRKEETFKKYRAE
notes: It carries four extra N-terminal residues and the first transmembrane residue (Ile); Not glycosylated (made in E. coli); Preparations hold monomer and disulfide-linked dimers and multimers; also called hCD83ext-wt; hCD83ext wild type
binding result [8]: binds

B5: hCD83ext-m5 (hCD83ext with the fifth cysteine, position 114 of SEQ ID NO:5, mutated to serine) (receptor)
chain: GSPGTPEVKVACSEDVDLPCTAPWDPQVPYTVSWVKLLEGGEERMETPQEDHLRGQHYHQKGQNGSFDAPNERPYSLKIRNTTSCNSGTYRCTLQDPDGQRNLSGKVILRVTGSPAQRKEETFKKYRAE
notes: also called CD83m-5; hCD83m-5
binding result [9]: binds
